Measured values from patent publication US20210147519A1 (Regeneron, published 2021).

B1: H1H20632D (bispecific antibody, V domains shown)
VH 1: EVQLVESGGGLVQPGRSLRLSCTTSGFTFDDYAMHWVRQVPGQGLEWVAGLSWNSDTIGYADSVKGRFTISRDNAKNSLYLQMKSLKAEDTALYYCTKDFYHSLNNWNYYYFDYWGQGTLVTVSS
VH 2: QVQLVESGGGVVQPGRSLRLSCAASGFTFSSYGMHWVRQAPGKGLEWVAVIWYDGSNKNYADSVKGRFTISRDSSKNTLYLQMNSLRAEDTAVYYCARENSEGYYYGMDVWGQGTTVTVSS
VL: not shown
notes: also called anti-IsdB x anti-C1q bispecific antibody
B2: H1H20633D (bispecific antibody, V domains shown)
VH 1: B1 VH 1
VH 2: EVQLVQSGAEVKKPGESLKISCKASGYNFNSYWIGWVRQMPGKGLEWMGIVFPGDSDTRYSPSFQGQVTISADESINTAYLQWSSLKASDTAVYYCARHTRWYLDYWGQGTLVTVSS
VL: not shown
notes: as for B1
B3: H1H20636D (bispecific antibody, V domains shown)
VH 1: QLQLQESGPGLVKPSETLSLTCTVSGGSISSSSYYWVWIRQPPGKGLEWIGNIYFSGSTYYNPSLKSRVTITVDTSKNQFSLKMTSVTAADTAVYYCARPFYGSRGDYYYGMDVWGQGTTVTVSS
VH 2: EIVLTQSPGTLSLSPGERATLSCRASQNVRSGYLAWYQQKPGQAPRLLIYGTSTRVTGIPDRFSGFGSGTDFTLTISRLEPEDFAVYYCQQYGNSPLFTFGGGTKVEIK
VL: not shown
notes: as for B1
B4: H1H20637D (bispecific antibody, V domains shown)
VH 1: B3 VH 1
VH 2: EIVMTQSPATLSVSPGERATLSCTASQTINSNLAWYQQRPGQAPRLLIYGASTRATGTPARFRGSGSGTEFTLTISSLLSEDFAVYYCQNYNNWPPGGPRTFGPGTKVDIK
VL: not shown
notes: as for B1
B5: H1H20642D (bispecific antibody, V domains shown)
VH 1: B3 VH 1
VH 2: EVQLVESGGGLVQPGGSLRLSCAASGFTFSNYEMNWVRQAPGKGLDWVSYISTSGSVIYYADSVKGRFTISRDNAKNSLYLEMNSLRAEDTAVYYCARGYDFWSGSDYYYGMDVWGQGTTVTVSS
VL: not shown
notes: as for B1
B6: H1H20641D (bispecific antibody, V domains shown)
VH 1: B3 VH 1
VH 2: QVQLVESGGGVVQPGRSLRLSCAASGFTFSNYGMHWVRQAPGKGLEWLAVIYYDGIKRYYGDSVQGRFIISRDNSKNTLYLQMNSLRDEDTAVYYCARAFSAAGPYNYYYAMDVWGQGTTVTVSS
VL: not shown
notes: as for B1
B7: H1H20638D (bispecific antibody, V domains shown)
VH 1: B3 VH 1
VH 2: DIQMTQSPSSLSASIGDRVTITCRTSQDINNYLAWYQQKPGKVPKLLIFSASTLQSGVPSRFSGSGFGTDFTFIISSLQPEDVATYFCQKYDSGRGLSFGGGTKVEIK
VL: not shown
notes: as for B1

What was measured:
[1] = target: T1, native human complement component C1q protein purified from human serum (Quidel) (human, UniProt P02745 23-245; P02746 28-253; P02747 29-245); experiment: SPR Biacore, captured Ab, hC1q analyte, 37C
T1 construct: the protein assayed was bought native serum C1q (Quidel); no signal peptide limits are stated; also called hC1q; human C1q

[2] = target: T1, native human complement component C1q …; experiment: competition ELISA, 30 pM biot-hC1q, competitor plate-coated hIgG1-k
[3] = target: T1, native human complement component C1q …; experiment: competition ELISA, 30 pM biot-hC1q, competitor plate-coated hIgG3-k
[4] = target: T1, native human complement component C1q …; experiment: competition ELISA, 6 nM biot-hC1q, competitor plate-coated hIgG2-k
[5] = target: T1, native human complement component C1q …; experiment: SPR Biacore, captured Ab, hC1q analyte, 25C
[6] = target: T1, native human complement component C1q …; experiment: cell-based or functional assay
[7] = target: T2, Recombinant bacterial IsdB expressed with a hexahistidine tag (IsdB-6xHis; REGN2655) (Staphylococcus aureus, UniProt A6QG30 42-613); experiment: SPR Biacore, captured Ab, IsdB-6xHis analyte, 37C
[8] = target: T3, IsdB expressed on the surface of S. aureus Wood 46 (Staphylococcus aureus); experiment: ELISA on plate-coated S. aureus Wood 46
T3 construct: whole, on cells
Protocol: Briefly, S. aureus Wood 46 was grown in RPMI overnight, washed in PBS and adjusted to an OD₆₀₀ of 0.25. MaxiSorp 96 well microtiter plates were coated overnight with 100 μl of S. aureus culture per well. Plates were washed and blocked with 3% BSA. […] Anti-human HRP conjugated secondary antibody was added to washed plates. Luminescence reagents (SuperSignal Pico) were then added to the wells and signal was detected in a plate reader (Victor X3 plate reader, Perkin Elmer) immediately. Luminescence values were analyzed by a four-parameter logistic equation over a 7-point response curve (GraphPad Prism) to determine the binding EC₅₀, of the antibodies.

[9] = target: T1, native human complement component C1q …; experiment: cell-based or functional assay; remark: listed apart in the source
[10] = target: T1, native human complement component C1q …; experiment: competition ELISA, 6 nM biot-hC1q, competitor plate-coated hIgM
[11] = target: T1, native human complement component C1q …; experiment: cell-based or functional assay; remark: listed apart in the source
[12] = target: T2, Recombinant bacterial IsdB expressed …; experiment: SPR Biacore, captured Ab, IsdB-6xHis analyte, 25C

T2 sequence (A6QG30 42-613, tags left off): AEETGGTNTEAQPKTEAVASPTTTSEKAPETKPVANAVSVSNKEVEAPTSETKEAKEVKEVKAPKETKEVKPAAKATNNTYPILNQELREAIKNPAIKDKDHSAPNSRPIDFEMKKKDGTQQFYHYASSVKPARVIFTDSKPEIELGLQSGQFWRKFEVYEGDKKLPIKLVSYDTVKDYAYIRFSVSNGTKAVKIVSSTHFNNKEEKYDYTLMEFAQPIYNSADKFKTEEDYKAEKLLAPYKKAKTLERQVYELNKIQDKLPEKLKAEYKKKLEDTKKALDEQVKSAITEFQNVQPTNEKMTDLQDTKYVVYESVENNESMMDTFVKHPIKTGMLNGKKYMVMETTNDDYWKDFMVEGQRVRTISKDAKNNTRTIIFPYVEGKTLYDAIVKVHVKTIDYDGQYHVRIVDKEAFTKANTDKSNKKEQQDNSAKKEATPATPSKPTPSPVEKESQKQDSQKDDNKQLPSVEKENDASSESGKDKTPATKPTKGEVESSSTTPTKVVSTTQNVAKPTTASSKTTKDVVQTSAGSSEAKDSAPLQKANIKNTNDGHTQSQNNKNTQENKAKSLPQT
T1 sequence (P02745 23-245 limits assumed, chain 1 of 3): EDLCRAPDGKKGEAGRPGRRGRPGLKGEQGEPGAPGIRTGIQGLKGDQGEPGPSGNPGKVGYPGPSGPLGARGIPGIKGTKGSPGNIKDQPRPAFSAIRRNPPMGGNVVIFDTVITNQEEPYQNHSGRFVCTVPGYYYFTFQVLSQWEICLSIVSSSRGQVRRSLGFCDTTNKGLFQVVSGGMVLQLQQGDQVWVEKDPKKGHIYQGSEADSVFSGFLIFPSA
T1 sequence (P02746 28-253 limits assumed, chain 2 of 3): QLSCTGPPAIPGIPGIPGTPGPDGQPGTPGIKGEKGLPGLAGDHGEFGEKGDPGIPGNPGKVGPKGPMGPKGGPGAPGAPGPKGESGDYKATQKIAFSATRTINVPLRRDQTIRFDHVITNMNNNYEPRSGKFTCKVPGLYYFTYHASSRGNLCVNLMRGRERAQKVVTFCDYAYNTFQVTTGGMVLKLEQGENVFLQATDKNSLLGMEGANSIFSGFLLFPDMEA
T1 sequence (P02747 29-245 limits assumed, chain 3 of 3): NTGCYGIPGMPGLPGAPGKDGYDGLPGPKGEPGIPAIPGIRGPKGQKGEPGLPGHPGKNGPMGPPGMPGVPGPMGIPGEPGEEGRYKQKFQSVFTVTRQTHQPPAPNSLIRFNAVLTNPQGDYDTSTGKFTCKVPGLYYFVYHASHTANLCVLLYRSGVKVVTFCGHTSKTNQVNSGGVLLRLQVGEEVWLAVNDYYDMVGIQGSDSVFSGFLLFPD
T3 sequence (Q2FZF0 41-613): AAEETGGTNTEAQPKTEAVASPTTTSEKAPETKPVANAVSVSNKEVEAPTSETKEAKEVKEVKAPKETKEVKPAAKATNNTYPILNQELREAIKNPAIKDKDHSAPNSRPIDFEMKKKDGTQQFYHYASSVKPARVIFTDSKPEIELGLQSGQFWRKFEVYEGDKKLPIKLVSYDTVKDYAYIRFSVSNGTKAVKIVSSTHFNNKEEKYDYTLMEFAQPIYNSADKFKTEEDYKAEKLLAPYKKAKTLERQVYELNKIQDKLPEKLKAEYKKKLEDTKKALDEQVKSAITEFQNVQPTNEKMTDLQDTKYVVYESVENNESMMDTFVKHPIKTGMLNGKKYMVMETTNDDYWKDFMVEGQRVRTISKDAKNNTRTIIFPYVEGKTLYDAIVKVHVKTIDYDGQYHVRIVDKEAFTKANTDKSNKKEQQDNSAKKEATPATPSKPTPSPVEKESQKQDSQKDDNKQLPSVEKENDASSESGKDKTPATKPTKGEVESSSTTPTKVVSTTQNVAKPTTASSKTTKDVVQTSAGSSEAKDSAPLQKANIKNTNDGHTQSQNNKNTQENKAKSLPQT

Binder	Kd [1]	koff [1]	kon [1]	t1/2 [1]	% Blockade with 30 nM bispecific Ab [2]	% Blockade with 30 nM bispecific Ab [3]	% Blockade with 600 nM bispecific Ab [4]	Kd [5]	koff [5]	kon [5]	t½ [5]	Kd [7]	koff [7]	kon [7]	t1/2 [7]	EC50 [8]	C1q deposition on S. aureus Cowan I EC50 [9]	% Blockade with 600 nM bispecific Ab [10]	Classical Pathway hemolysis assay % inhibition [11]	Kd [12]	other results
B1	0.175 nM	0.00871 s⁻¹	4.99e+07 M⁻¹ s⁻¹	1.33 min	90%	86%	88%	0.294 nM	0.00318 s⁻¹	1.08e+07 M⁻¹ s⁻¹	3.64 min	3.41 nM	0.000527 s⁻¹	154000 M⁻¹ s⁻¹	21.9 min	1.08 nM	0.529 nM	97%	100%	2.21 nM	IC50 [3]: 83 nM; IC50 [4]: 23 nM; inhibition of CDC of Daudi cells, IC50 [M] [6]: 2.3e-07 M; inhibition of CDC of Daudi cells, Max % Inhibition [6]: ≥ 99%; IC50 [10]: 18 nM; Classical Pathway hemolysis assay IC50 [11]: 1.78 nM; koff [12]: 0.000255 s⁻¹; kon [12]: 115000 M⁻¹ s⁻¹; t½ [12]: 45.2 min
B2	0.487 nM	0.0127 s⁻¹	2.61e+07 M⁻¹ s⁻¹	0.91 min	93%	84%	79%	0.271 nM	0.00348 s⁻¹	1.28e+07 M⁻¹ s⁻¹	3.32 min	3.41 nM	0.00054 s⁻¹	159000 M⁻¹ s⁻¹	21.4 min	1.31 nM	0.203 nM	96%	100%	2.04 nM	IC50 [2]: 1.6 nM; IC50 [3]: 4.8 nM; IC50 [4]: 8.2 nM; inhibition of CDC of Daudi cells, IC50 [M] [6]: 1.7e-08 M; inhibition of CDC of Daudi cells, Max % Inhibition [6]: ≥ 99%; IC50 [10]: 6.4 nM; Classical Pathway hemolysis assay IC50 [11]: 1.42 nM; koff [12]: 0.000247 s⁻¹; kon [12]: 121000 M⁻¹ s⁻¹; t½ [12]: 46.9 min
B3	2.73 nM	0.0179 s⁻¹	6.57e+06 M⁻¹ s⁻¹	0.64 min	-29%	-11%	20%	2.12 nM	0.0102 s⁻¹	4.81e+06 M⁻¹ s⁻¹	1.14 min	17.4 nM	0.00144 s⁻¹	82800 M⁻¹ s⁻¹	8.04 min	9.52 nM	8.54 nM	11%	0%	4.98 nM	koff [12]: 0.000378 s⁻¹; kon [12]: 75800 M⁻¹ s⁻¹; t½ [12]: 30.6 min
B4	2.33 nM	0.0407 s⁻¹	1.75e+07 M⁻¹ s⁻¹	0.28 min	-3%	-2%	70%	1.54 nM	0.0124 s⁻¹	8.01e+06 M⁻¹ s⁻¹	0.93 min	17.4 nM	0.00149 s⁻¹	85100 M⁻¹ s⁻¹	7.78 min	11.3 nM	5 nM	88%	50%	9.34 nM	IC50 [4]: 100 nM; inhibition of CDC of Daudi cells, IC50 [M] [6]: > 1e-07 M; inhibition of CDC of Daudi cells, Max % Inhibition [6]: 67%; IC50 [10]: 71 nM; koff [12]: 0.000468 s⁻¹; kon [12]: 50100 M⁻¹ s⁻¹; t½ [12]: 24.7 min
B5	0.0501 nM	0.000412 s⁻¹	8.23e+06 M⁻¹ s⁻¹	28 min	71%	96%	80%	0.0114 nM	0.000196 s⁻¹	1.72e+07 M⁻¹ s⁻¹	58.9 min	16.7 nM	0.00141 s⁻¹	84600 M⁻¹ s⁻¹	8.19 min	8.57 nM	0.00586 nM	72%	99%	8.26 nM	IC50 [2]: 0.11 nM; IC50 [3]: 0.37 nM; IC50 [4]: 5 nM; inhibition of CDC of Daudi cells, IC50 [M] [6]: 1e-08 M; inhibition of CDC of Daudi cells, Max % Inhibition [6]: ≥ 99%; IC50 [10]: 3.9 nM; Classical Pathway hemolysis assay IC50 [11]: 0.106 nM; koff [12]: 0.000501 s⁻¹; kon [12]: 60700 M⁻¹ s⁻¹; t½ [12]: 23 min
B6	0.18 nM	0.00027 s⁻¹	1.5e+06 M⁻¹ s⁻¹	42.9 min	-17%	-13%	19%	0.154 nM	0.00068 s⁻¹	4.38e+06 M⁻¹ s⁻¹	17.1 min	14.7 nM	0.00141 s⁻¹	95900 M⁻¹ s⁻¹	8.19 min	10.3 nM	1.29 nM	14%	0%	6.02 nM	inhibition of CDC of Daudi cells, IC50 [M] [6]: > 1e-06 M; inhibition of CDC of Daudi cells, Max % Inhibition [6]: 33%; koff [12]: 0.000438 s⁻¹; kon [12]: 72800 M⁻¹ s⁻¹; t½ [12]: 26.4 min
B7	1.98 nM	0.011 s⁻¹	5.53e+06 M⁻¹ s⁻¹	1.05 min	-30%	-25%	33%	1.28 nM	0.00511 s⁻¹	4.01e+06 M⁻¹ s⁻¹	2.26 min	17.8 nM	0.00144 s⁻¹	80900 M⁻¹ s⁻¹	8.03 min	10.4 nM	2.55 nM	28%	24%	10.8 nM	inhibition of CDC of Daudi cells, IC50 [M] [6]: 1e-07 M; inhibition of CDC of Daudi cells, Max % Inhibition [6]: ≥ 99%; koff [12]: 0.000498 s⁻¹; kon [12]: 46200 M⁻¹ s⁻¹; t½ [12]: 23.2 min
